Measurements taken from patent US7341730B1, “Inhibitors of angiogenesis and tumor growth” (University of Southern California, priority 1998, dated 2008).
Entries after “also recorded” stand apart in the source; their conditions may differ.

Legend:
KS cell lines [1] = experiment: KS cell migration in transwell plates; assay type: cell-based; details: for % Cells Migrating Through Membrane (of Control): KS cell lines
Method: The assays were done in double chamber wells separated by fibrinogen-coated membrane. Chemotaxis was induced by bFGF (25 ng/mL) in the lower chamber. Endothelial cells or KS cells (5×10^4/mL) were placed in the upper chamber in the presence and absence of test polypeptides. Taxol at 10 ng/mL was used as a known inhibitor of migration. Cell migration across the membrane was quantitated after an overnight incubation.
Angiogenesis is mediated by complex biochemical processes including degradation of the basement membrane under existing blood vessel endothelial cells, followed by proliferation and migration of endothelial cells, followed by formation of capillary loops, and recruitment of vascular smooth muscle cells to encase the newly formed vessels and provide stability. KS and endothelial cell migration in the presence of Saposin B was studied in transwell culture plates with 8 μm pore membranes (Costar, Cambridge, Mass.).
Briefly, wells were coated with fibronectin (25 μg/mL) overnight, and endothelial cells or KS cells were plated in the upper chamber with 100 μL of DMEM/0.4% FCS. 500 μL of DMEM/0.4% FCS was added to the lower chamber and incubated at 37° C. for one hour. The test polypeptides, at various concentrations, were added to the upper chamber, and chemotactic agents (VEGF or bFGF at 20 ng/mL) were added to the lower cell-culture chambers. The plates were incubated for 5 hr at 37° C. and the cells crossing the fibronectin-coated membrane were counted after wiping the cells off the membrane in the upper chamber with a cotton swab.
The cells that traversed the membrane were fixed with Diff-Quik stain according to the manufacturer's instruction (Dade Diagnostics Inc., Aguada, PR). The cells were counted under a microscope at 320× in four randomly selected fields. The experiments were done in duplicate and repeated at least three times.

KS Y-1 cells = experiment: KS Y-1 cell proliferation assay (MTT); assay type: cell-based; details: concentration not given
Method: (§1) To determine if Saposin B polypeptides had anti-angiogenic activity, a series of overlapping polypeptides were synthesized and tested in the KS Y-1 cell proliferation assay. The overlapping polypeptides are SEQ ID NOs:13 though 43. Cell Proliferation assays in either KS cells or fibroblast. Cells were plated in 48 well plates at equal numbers in appropriate culture medium. Cells were treated with the test compounds at various concentrations on day one, and on day 3. MTT was done on day 5. KS cells were used to represent the activated endothelial cells, while fibroblast cells represent the control cells. The results are remarkable for the lack of toxicity to the fibroblast relative to the activated endothelial cells/KS cells.

fibroblast cells (T1) = experiment: Fibroblast proliferation assay (MTT), control cells; assay type: cell-based
Method: as §1

KS cell lines [2] = experiment: Growth inhibition of KS cell lines by recombinant proteins; assay type: cell-based; details: recombinant or naturally occurring protein
Method: (§2) Typically, in an anti-proliferation assay, the suppression of growth in the presence of the compound to be tested is measured. For example, the above cells are incubated with the polypeptides of this invention for a suitable time and the decrease in the growth rate relative to a negative control, i.e., cells of the same cell line which have been incubated in media alone, is measured. Growth of the cell culture can be measured by any method acceptable to one of skill, including but not limited to, 3H-thymidine uptake, cell counting and tetrazolium dye uptake.
(§3) By SDS-PAGE, the bacterial product was smaller than the eukaryotic protein. Because prokaryotically expressed proteins are not glycosylated, the difference in molecular weights probably represents the presence of carbohydrate in the eukaryotic protein. Recombinant proteins were then tested in KS, endothelial and control cell lines. Activity was found only in KS cell lines and endothelial cells.

[3] = test system: endothelial cells (HUVEC); experiment: Growth inhibition of endothelial cells; assay type: cell-based
Method: as §2, §3

[4] = test system: CD34+ cord blood derived cells; experiment: Viability of CD34+ cord blood derived cells; assay type: cell-based, human
From the text: However in the presence of Saposin B, CD34^+/Flk-1^+ progenitor growth was inhibited.
Saposin B was found not to be toxic to most CD34^+ cord blood derived cells, since the difference in viability of Saposin B treated CD34^+ cells was only around 20% when compared to control cells. Thus Saposin B not only targets fully differentiated and activated endothelial cells, but also a circulating progenitor, previously shown to target angiogenic sites.

KS-SLK or KS Y-1 tumors = experiment: KS tumor growth in nude mice; assay type: in vivo
Method: FIG. 6: Effect of pentapeptide DVCQD (SEQ ID NO:28) on the growth of established KS Y-1 tumors in mice. Mice were implanted with the tumor on day one. Treatment with the peptide was started on the following day at a dose of 50 mg/kg subcutaneously daily. […] The arrow marks initiation of daily subcutaneous dosing.
In order to determine the anti-angiogenic activity of the recombinant Saposin B, tumor cells were implanted in immuno-deficient mice and treated with either Saposin B or buffer alone.
Nude mice were injected with 2×10^6 KS-SLK or KS Y-1 cells subcutaneously in a total volume of 100 μL. After one week of tumor development, the mice were injected subcutaneously daily with either PBS or Saposin B at concentrations of 1, 10 and 20 mg/kg for a total protein concentration of […]. The tumor size was measured three times a week. The results represent the median of 4 mice in each group.
(§4) To determine whether this anti-tumor effect was reproducible with different classes of syngeneic-tumors, C57BL/6 mice were implanted with Lewis lung carcinoma, melanoma (B16), and T-cell lymphoma (EL-4) cell lines. KS Y-1 was implanted into nude mice for a positive control. The day following tumor implantation, 2.5 mg/kg of Saposin B was administered intraperitoneally. Tumor size was measured three times a week for two weeks at which time the mice were sacrificed for analysis. […] See, FIG. 4
In further experiments, KS tumors were allowed to grow for five days before treatment with Saposin B (1 and 5 mg/kg daily at a distal site from the timer tumor). In control mice, tumors grew to a weight of 555+mg. […] Tumors excised at the conclusion of the experiments were also examined for apoptosis, blood vessel density, and mitotic index. […] Thus, contrary to the results in vitro, Saposin B has an inhibitory effect against […] tumors.

[5] = test system: CD34+/Flk-1+ cells from cord blood; experiment: Growth of CD34+/Flk-1+ progenitors on fibronectin coated dishes; assay type: cell-based, human; details: 50 ng/mL
From the text: A bone marrow derived human CD34+/Flk-1+ progenitor cell can be mobilized into the blood stream in response to tumor induced signals such as VEGF and cytokine production. These cells can target to sites of angiogenesis where they mature into activated endothelial cells and thus contribute to the generation of new blood vessels at the tumor site. By blocking the production of these cells or by targeting these cells (i.e., the CD34+/Flk-1+ progenitors and the activated endothelial cell they can become), the angiogenesis/vasculogenesis required for tumor growth can be reduced or halted. […] The adherent cells take on a spindle-shaped morphology characteristic of the activated vascular endothelial cells typical of the angiogenic process. These cells express endothelial-specific markers including factor VIII, ulex europaeus agglutinin-1 (UEA-1), endothelial constitutive nitric oxide synthase (ecNOS), and E selectin. Further, when these cells (peripheral blood Flk+ progenitors) are infused into mice, they incorporate into newly formed blood vessels at site of injury. These observation identify CD34+/Flk-1+ bone marrow derived progenitors as a putative precursor to vascular endothelial cells. Preventing these cells from colonizing at distal sites of angiogenesis in tumors has enormous implication for the treatment of tumors. […]

[6] = test system: Human bone marrow cells and peripheral blood mononuclear cells; experiment: Stem cell clonogenic assays in methylcellulose; assay type: cell-based; details: VEGF 10 and 100 ng/mL
Method: Human bone marrow cells and peripheral blood mononuclear cells were harvested from a subject after the administration of high doses of cyclophosphamide and G-CSF. Stem cell clonogenic assays in methylcellulose were performed with IL-3, erythropoietin, and VEGF (10 ng/mL, and 100 ng/mL). VEGF was used to determine if there are progenitor cells with self replication capacity but without adherence to extracellular matrix such as fibronectin. It was also desirable to determine if Saposin B was toxic to endothelial cell specific progenitors for hematopoietic (myeloid or erythroid) lineage cells.
These colonies contained mixture of cells indicating more than one cell lineage generated in response to VEGF. The colonies also contained spindle shaped cells which mark the presence of VEGF receptors.

[7] = test system: angiogenesis induced by VEGF or bFGF in chicken allantoic membrane (CAM); experiment: Chicken allantoic membrane (CAM) angiogenesis assay; assay type: in vivo; details: 48 hours
Method: In order to test anti-angiogenic activity, chicken allantoic membrane (CAM) assays were performed with recombinant Saposin B. Ten day old fertilized chicken eggs were prepared for assay by creating a window in the egg shell, and placing filter paper discs saturated with VEGF or bFGF as positive controls, test compounds, or carrier buffer (negative controls) on the allantoic membrane. The membranes were harvested after 48 hours and analyzed using an Olympus stereomicroscope. The number of branching blood vessels that infiltrated under the discs were counted and photographed. Eight CAMs were studied for test group, and the experiments were repeated at least twice.

melanoma (B16) = experiment: Syngeneic tumor growth in C57BL/6 mice, melanoma (B16); assay type: in vivo; details: 2.5 mg/kg from the day following implantation, two weeks
Method: (§5) FIG. 4: Inhibition of tumor growth in mice. C57BL/6 mice were implanted with Lewis lung carcinoma, melanoma (B 16), and T-cell lymphoma (EL4). KS Y-1 was implanted in nude mice as a positive control. One day after implantation 2.5 mg/kg of Saposin B was injected into the mice subcutaneously.
as §4

T-cell lymphoma (EL-4) = experiment: Syngeneic tumor growth in C57BL/6 mice, T-cell lymphoma (EL-4); assay type: in vivo; details: 2.5 mg/kg from the day following implantation, two weeks
Method: as §5, §4

Lewis lung carcinoma = experiment: Syngeneic tumor growth in C57BL/6 mice, Lewis lung carcinoma; assay type: in vivo; details: 2.5 mg/kg from the day following implantation, two weeks
Method: as §5, §4

[8] = KS tumors grown five days before treatment, 1 and 5 mg/kg daily

GDVCQDCIQMV [SEQ ID NO:19]
% Cells Migrating Through Membrane (of Control) (KS cell lines [1]; 1 μg/mL): 78.23%
% Cells Migrating Through Membrane (of Control) (KS cell lines [1]; 10 μg/mL): 40.32%
% Cells Migrating Through Membrane (of Control) (KS cell lines [1]; 50 μg/mL): 20.98%
Cell Proliferation Activity (% of control), KS Y-1 (KS Y-1 cells; KS Y-1, first value column): 28 % of control
Cell Proliferation Activity (% of control), KS Y-1 (KS Y-1 cells; KS Y-1): 8 % of control
Fibroblast Proliferation, % of Control (fibroblast cells (T1); 1 μg/mL): 91.3 % of Control
Fibroblast Proliferation, % of Control (fibroblast cells (T1); 10 μg/mL): 91.3 % of Control

B1: Saposin B: polypeptide fragment of Prosaposin, positions 190 to 269 (SEQ ID NO:2); tested as recombinant protein (protein, listed as Homo sapiens)
chain: GDVCQDCIQMVTDIQTAVRTNSTFVQALVEHVKEECDRLGPGMADICKNYISQYSEIAIQMMMHMQPKEICALVGFCDEVK
modifications: Saposin B
notes: tested as recombinant protein
growth inhibition / activity against KS cell lines (KS cell lines [2]): dose dependent growth inhibition
growth inhibition / activity against endothelial cells [3]: dose dependent growth inhibition
difference in viability of treated CD34+ cells compared to control cells [4]: around 20%
tumor growth (KS-SLK or KS Y-1 tumors; KS Y-1 in nude mice, 2.5 mg/kg from the day following implantation, two weeks): profound inhibition of tumor growth
apoptosis in excised tumors (KS-SLK or KS Y-1 tumors; [8]): increase in apoptosis
blood vessel density in excised tumors (KS-SLK or KS Y-1 tumors; [8]): decrease in blood vessel density
weights of excised tumors relative to controls (KS-SLK or KS Y-1 tumors; [8]): approximately 23%
tumor growth (KS-SLK or KS Y-1 tumors; nude mice, KS-SLK or KS Y-1, subcutaneously daily after one week, 1, 10 and 20 mg/kg): markedly retarded
CD34+/Flk-1+ progenitor growth [5]: inhibited
inhibition of KS cell migration (KS cell lines [1]; chemotaxis induced by VEGF or bFGF): compete inhibition of cell migration
effect on colonies generated with VEGF [6]: loss of spindle shaped cells
inhibition of angiogenesis (number of blood vessel branches) in CAMs [7]: effectively blocked angiogenesis; also recorded: inhibited by Saposin B in a dose-dependent fashion
tumor growth (melanoma (B16)): profound inhibition of tumor growth
tumor growth (T-cell lymphoma (EL-4)): profound inhibition of tumor growth
tumor growth (Lewis lung carcinoma): profound inhibition of tumor growth

B2: Prosaposin: 70 kD glycoprotein, precursor of Saposin A, B, C and D; naturally occurring full-length (protein, listed as Homo sapiens)
chain: MYALFLLASLLGAALAGPVLGLKECTRGSAVWCQNVKTASDCGAVKHCLQTVWNKPTVKSLPCDICKDVVTAAGDMLKDNATEEEILVYLEKTCDWLPKPNMSASCKEIVDSYLPVILDIIKGEMSRPGEVCSALNLCESLQKHLAELNHQKQLESNKIPELDMTEVVAPFMANIPLLLYPQDGPRSKPQPKDNGDVCQDCIQMVTDIQTAVRTNSTFVQALVEHVKEECDRLGPGMADICKNYISQYSEIAIQMMMHMQPKEICALVGFCDEVKEMPMQTLVPAKVASKNVIPALELVEPIKKHEVPAKSDVYCEVCEFLVKEVTKLIDNNKTEKEILDAFDKMCSKLPKSLSEECQEVVDTYGSSILSILLEEVSPELVCSMLHLCSGTRLPALTVHVTQPKDGGFCEVCKKLVGYLDRNLEKNSTKQEILAALEKGCSFLPDPYQKQCDQFVAEYEPVLIEILVEVMDPSFVCLKIGACPSAHKPLLGTEKCIWGPSYWCQNTETAAQCNAVEHCKRHVWN
modifications: prosaposin
notes: 70 kD glycoprotein, precursor of Saposin A, B, C and D; naturally occurring full-length
growth inhibition / activity against KS cell lines (KS cell lines [2]): no activity
growth inhibition / activity against endothelial cells [3]: no activity
